Substrate in this data set: NCCc1c[nH]c2ccc(O)cc12
The data set is described as follows: HPLC with fluorescence detection of N-acetylserotonin; Lineweaver-Burk plot. The class given is biochemical, Chlamydomonas reinhardtii. To be noted: acetyl-CoA as co-substrate (0.5 mM in the standard assay), 100 mM potassium phosphate, standard assay pH 8.8, 45 °C, 30 min, serotonin 50 to 2000 μM.

B1: CrAANAT (Chlamydomonas reinhardtii) (protein)
chain: MAEESLDASVQPLGSTVFFGPVQPEMLDRIHELEAASYPEDEAATYEKLKFRIENASNVFLVALSAEGDGEPKVVGFVCGTQTRASKLTHESMSTHDADGALLCIHSVVVDAALRRRGLATRMLRAYTAFVAATSPGLTGIRLLTKQNLIPLYEGAGFTLLGPSDVEHGADLWYECAMELEAEEEAEAAEA
notes: full length, 191 residues, codon-optimized synthetic gene; N-terminal GST fusion with C-terminal His6 (GST-CrAANAT-His6, pET60), tags kept
Turning to B1, the Km (in general, the substrate concentration at which the rate is half of its maximum) stood at 247 µM.

The values are drawn from article PMC9405056, “Functional Characterization of Arylalkylamine N-Acetyltransferase, a Pivotal Gene in Antioxidant Melatonin Biosynthesis from Chlamydomonas reinhardtii” (Antioxidants, 2022).
